Laboratory results published in article PMC7476758, “Underground isoleucine biosynthesis pathways in E. coli” (eLife, 2020).

Assays:
Assay type in all cases: biochemical, Escherichia coli
purified protein [1] = substrate: CCC(=O)SCCNC(=O)CCNC(=O)[C@H](O)C(C)(C)COP(=O)(O)OP(=O)(O)OC[C@H]1O[C@@H](n2cnc3c(N)ncnc32)[C@H](O)[C@@H]1OP(=O)(O)O; assay: purified protein; conditions: glycyl radical (activated by PFL-AE)
[2] = substrate: O=CO; assay: Michaelis-Menten kinetics of purified enzyme, LDH-coupled NADH assay (KM); conditions: glycyl radical (activated by PFL-AE)
[3] = substrate: N[C@@H](CO)C(=O)O; assay: Michaelis-Menten kinetics of purified enzyme, DTNB assay (KM)
[4] = substrate: CC(=O)SCCNC(=O)CCNC(=O)[C@H](O)C(C)(C)COP(=O)(O)OP(=O)(O)OC[C@H]1O[C@@H](n2cnc3c(N)ncnc32)[C@H](O)[C@@H]1OP(=O)(O)O; assay: Michaelis-Menten kinetics of purified enzyme, DTNB assay of released CoA (KM)
[5] = substrate: CCC(=O)SCCNC(=O)CCNC(=O)[C@H](O)C(C)(C)COP(=O)(O)OP(=O)(O)OC[C@H]1O[C@@H](n2cnc3c(N)ncnc32)[C@H](O)[C@@H]1OP(=O)(O)O; assay: Michaelis-Menten kinetics of purified enzyme, LDH-coupled NADH assay (KM); conditions: glycyl radical (activated by PFL-AE)
purified protein [6] = substrate: N[C@@H](CCOC(=O)CCC(=O)O)C(=O)O; assay: purified protein; conditions: pyridoxal-5'-phosphate

B1: pyruvate formate-lyase (PFL, PflB) (Escherichia coli K-12) (protein)
chain: SELNEKLATAWEGFTKGDWQNEVNVRDFIQKNYTPYEGDESFLAGATEATTTLWDKVMEGVKLENRTHAPVDFDTAVASTITSHDAGYINKQLEKIVGLQTEAPLKRALIPFGGIKMIEGSCKAYNRELDPMIKKIFTEYRKTHNQGVFDVYTPDILRCRKSGVLTGLPDAYGRGRIIGDYRRVALYGIDYLMKDKLAQFTSLQADLENGVNLEQTIRLREEIAEQHRALGQMKEMAAKYGYDISGPATNAQEAIQWTYFGYLAAVKSQNGAAMSFGRTSTFLDVYIERDLKAGKITEQEAQEMVDHLVMKLRMVRFLRTPEYDELFSGDPIWATESIGGMGLDGRTLVTKNSFRFLNTLYTMGPSPEPNMTILWSEKLPLNFKKFAAKVSIDTSSLQYENDDLMRPDFNNDDYAIACCVSPMIVGKQMQFFGARANLAKTMLYAINGGVDEKLKMQVGPKSEPIKGDVLNYDEVMERMDHFMDWLAKQYITALNIIHYMHDKYSYEASLMALHDRDVIRTMACGIAGLSVAADSLSAIKYAKVKPIRDEDGLAIDFEIEGEYPQFGNNDPRVDDLAVDLVERFMKKIQKLHTYRDAIPTQSVLTITSNVVYGKKTGNTPDGRRAGAPFGPGANPMHGRDQKGAVASLTSVAKLPFAYAKDGISYTFSIVPNALGKDDEVRKTNLAGLMDGYFHHEASIEGGQHLNVNVMNREMLLDAMENPEKYPQLTIRVSGYAVRFNSLTKEQQQDVITRTFTQSM
For B1, the Km (purified protein [1]) was 830 ± 580 µM, the Vmax (purified protein [1]) was 1.1 µmol/min/mg and the kcat (purified protein [1]) was 1.7 ± 0.9 s⁻¹. The Km [2] was 69000 ± 11000 µM, the Vmax [2] was 0.59 µmol/min/mg and the kcat [2] was 0.9 ± 0.05 s⁻¹.

B2: serine acetyltransferase (CysE) (Escherichia coli K-12) (protein)
chain: MSCEELEIVWNNIKAEARTLADCEPMLASFYHATLLKHENLGSALSYMLANKLSSPIMPAIAIREVVEEAYAADPEMIASAACDIQAVRTRDPAVDKYSTPLLYLKGFHALQAYRIGHWLWNQGRRALAIFLQNQVSVTFQVDIHPAAKIGRGIMLDHATGIVVGETAVIENDVSILQSVTLGGTGKSGGDRHPKIREGVMIGAGAKILGNIEVGRGAKIGAGSVVLQPVPPHTTAAGVPARIVGKPDSDKPSMDMDQHFNGINHTFEYGDGI
For B2, the Km [3] was 800 ± 300 µM and the Km [4] was 600 ± 200 µM.

B3: TdcE (2-ketobutyrate formate-lyase) (Escherichia coli K-12) (protein)
chain: MKVDIDTSDKLYADAWLGFKGTDWKNEINVRDFIQHNYTPYEGDESFLAEATPATTELWEKVMEGIRIENATHAPVDFDTNIATTITAHDAGYINQPLEKIVGLQTDAPLKRALHPFGGINMIKSSFHAYGREMDSEFEYLFTDLRKTHNQGVFDVYSPDMLRCRKSGVLTGLPDGYGRGRIIGDYRRVALYGISYLVRERELQFADLQSRLEKGEDLEATIRLREELAEHRHALLQIQEMAAKYGFDISRPAQNAQEAVQWLYFAYLAAVKSQNGGAMSLGRTASFLDIYIERDFKAGVLNEQQAQELIDHFIMKIRMVRFLRTPEFDSLFSGDPIWATEVIGGMGLDGRTLVTKNSFRYLHTLHTMGPAPEPNLTILWSEELPIAFKKYAAQVSIVTSSLQYENDDLMRTDFNSDDYAIACCVSPMVIGKQMQFFGARANLAKTLLYAINGGVDEKLKIQVGPKTAPLMDDVLDYDKVMDSLDHFMDWLAVQYISALNIIHYMHDKYSYEASLMALHDRDVYRTMACGIAGLSVATDSLSAIKYARVKPIRDENGLAVDFEIDGEYPQYGNNDERVDSIACDLVERFMKKIKALPTYRNAVPTQSILTITSNVVYGQKTGNTPDGRRAGTPFAPGANPMHGRDRKGAVASLTSVAKLPFTYAKDGISYTFSIVPAALGKEDPVRKTNLVGLLDGYFHHEADVEGGQHLNVNVMNREMLLDAIEHPEKYPNLTIRVSGYAVRFNALTREQQQDVISRTFTQAL
For B3, the Km [5] was 520 ± 81 µM, the Vmax [5] was 2.1 µmol/min/mg and the kcat [5] was 3.2 ± 0.2 s⁻¹. For the same protein, the Km [2] was 20000 ± 3000 µM, the Vmax [2] was 1.8 µmol/min/mg and the kcat [2] was 2.7 ± 0.1 s⁻¹.

B4: cystathionine γ-synthase (MetB) (Escherichia coli K-12) (protein)
chain: MTRKQATIAVRSGLNDDEQYGCVVPPIHLSSTYNFTGFNEPRAHDYSRRGNPTRDVVQRALAELEGGAGAVLTNTGMSAIHLVTTVFLKPGDLLVAPHDCYGGSYRLFDSLAKRGCYRVLFVDQGDEQALRAALAEKPKLVLVESPSNPLLRVVDIAKICHLAREVGAVSVVDNTFLSPALQNPLALGADLVLHSCTKYLNGHSDVVAGVVIAKDPDVVTELAWWANNIGVTGGAFDSYLLLRGLRTLVPRMELAQRNAQAIVKYLQTQPLVKKLYHPSLPENQGHEIAARQQKGFGAMLSFELDGDEQTLRRFLGGLSLFTLAESLGGVESLISHAATMTHAGMAPEARAAAGISETLLRISTGIEDGEDLIADLENGFRAANKG
B4 gave a Km (purified protein [6]) of 600 ± 80 µM.
